Reference: the supplement of paper PMC9233669
Fewer inactive variants are shown than the library holds.

Legend:
biotinyl-Phe-oxazolone = assay: self-aminoacylation, catalytic enhancement (BFO) (fold over background); higher = more active; k-Seq, kA / k0A0; sequences stand for … in GGGAAUGGAUCCACAUCUACGAAUUC…UUCACUGCAGACUUGACGAAGCUG
Procedure, shortened: (§1)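 Mutagenized RNA pools with a 21-nt variable region (0.43 μM) reacted with each biotinyl-aminoacyl-oxazolone at 2–1250 μM. Reactions ran in 50 μL HEPES/NaCl/KCl/MgCl2/CaCl2 buffer with 5% acetonitrile, pH 6.9–7.0, for 90 minutes at room temperature. Streptavidin-captured RNA was quantified by triplicate qPCR and Illumina sequencing, and per-sequence fraction reacted was fit to a pseudo-first-order model with 1000 bootstraps. Catalytic enhancement is median kA divided by the uncatalyzed rate, the low-activity peak of a bimodal Gaussian fit.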

biotinyl-Trp-oxazolone = assay: self-aminoacylation, catalytic enhancement (BWO) (fold over background); higher = more active; k-Seq, kA / k0A0; sequences stand for … in GGGAAUGGAUCCACAUCUACGAAUUC…UUCACUGCAGACUUGACGAAGCUG
Procedure, shortened: as §1

biotinyl-Ile-oxazolone = assay: self-aminoacylation, catalytic enhancement (BIO) (fold over background); higher = more active; k-Seq, kA / k0A0; sequences stand for … in GGGAAUGGAUCCACAUCUACGAAUUC…UUCACUGCAGACUUGACGAAGCUG
Procedure, shortened: as §1

biotinyl-Leu-oxazolone = assay: self-aminoacylation, catalytic enhancement (BLO) (fold over background); higher = more active; k-Seq, kA / k0A0; sequences stand for … in GGGAAUGGAUCCACAUCUACGAAUUC…UUCACUGCAGACUUGACGAAGCUG
Procedure, shortened: as §1

biotinyl-Met-oxazolone = assay: self-aminoacylation, catalytic enhancement (BMO) (fold over background); higher = more active; k-Seq, kA / k0A0; sequences stand for … in GGGAAUGGAUCCACAUCUACGAAUUC…UUCACUGCAGACUUGACGAAGCUG
Procedure, shortened: as §1

biotinyl-Val-oxazolone = assay: self-aminoacylation, catalytic enhancement (BVO) (fold over background); higher = more active; k-Seq, kA / k0A0; sequences stand for … in GGGAAUGGAUCCACAUCUACGAAUUC…UUCACUGCAGACUUGACGAAGCUG
Procedure, shortened: as §1

| Sequence | self-aminoacylation (biotinyl-Phe-oxazolone) | self-aminoacylation (biotinyl-Trp-oxazolone) | self-aminoacylation (biotinyl-Ile-oxazolone) | self-aminoacylation (biotinyl-Leu-oxazolone) | self-aminoacylation (biotinyl-Met-oxazolone) | self-aminoacylation (biotinyl-Val-oxazolone) |
| --- | --- | --- | --- | --- | --- | --- |
| AAGUUUGCUUAUAGUCGCACG [Fam3.1 aminoacylation ribozyme variant] | 1.27 | 0.924 | 0.815 | 0.932 | 0.961 | 0.855 |
| AAGUUUGCUUAUAGUCGCAUG [Fam3.1 aminoacylation ribozyme variant] | 1.33 | 0.976 | 0.918 | 0.926 | 0.857 | 0.999 |
| AAGUUUGCUUAUAGUUGCAAG [Fam3.1 aminoacylation ribozyme variant] | 0.81 | 0.591 | 0.877 | 0.894 | 0.919 | 0.987 |
| AAGUUUGGUAAUAGACGCAAG [Fam3.1 aminoacylation ribozyme variant] | 0.706 | 0.575 | 0.574 | 0.442 | 0.453 | 0.487 |
| AAGUUUGGUAAUAGUCGCAUG [Fam3.1 aminoacylation ribozyme variant] | 2.43 | 1.58 | 1.51 | 1.31 | 1.31 | 1.62 |
| AAGUUUGGUACUAGUCGCAAG [Fam3.1 aminoacylation ribozyme variant] | 2.39 | 1.73 | 1.66 | 1.57 | 2.03 | 1.7 |
| AAGUUUGGUGAUAGUCGCAAG [Fam3.1 aminoacylation ribozyme variant] | 2.03 | 1.42 | 1.36 | 1.43 | 1.51 | 1.23 |
| AAGUUUGGUUAUAGUCGCAAG [Fam3.1 aminoacylation ribozyme variant] | 2.69 | 1.46 | 1.7 | 1.38 | 1.23 | 1.39 |
| AAGUUUGUUAAUAGUCACAAG [Fam3.1 aminoacylation ribozyme variant] | 1.16 | 0.701 | 1.06 | 0.749 | 0.982 | 0.941 |
| AAGUUUGUUAAUAGUCCCAAG [Fam3.1 aminoacylation ribozyme variant] | 1.12 | 0.847 | 0.846 | 0.775 | 0.751 | 0.884 |
| AAGUUUGUUAAUAGUCGAAAG [Fam3.1 aminoacylation ribozyme variant] | 1.08 | 0.713 | 0.947 | 0.935 | 0.764 | 0.998 |
| AAGUUUGUUAAUAGUCGCACG [Fam3.1 aminoacylation ribozyme variant] | 1.4 | 1.04 | 1.04 | 1.22 | 1.12 | 0.925 |
| AAGUUUGUUAAUGGUCGCAAG [Fam3.1 aminoacylation ribozyme variant] | 1.11 | 0.557 | 0.867 | 0.694 | 0.775 | 0.685 |
| AAGUUUUCUAAUAGUCGCACG [Fam3.1 aminoacylation ribozyme variant] | 1.8 | 1.34 | 1.3 | 1.24 | 1.38 | 1.25 |
| AAGUUUUCUAAUGGUCGCAAG [Fam3.1 aminoacylation ribozyme variant] | 2.21 | 1.68 | 1.67 | 1.6 | 1.21 | 1.38 |
| AAGUUUUUUAAUAGUCGCAAG [Fam3.1 aminoacylation ribozyme variant] | 3.28 | 2.02 | 2.01 | 1.71 | 1.58 | 1.62 |
| AAUACCCAGGUCAUCGAGUGA [Fam2.1 aminoacylation ribozyme variant] | 17.6 | 5.81 | 2.87 | 4.58 | 4.41 | 2.56 |
| AAUACCCUGGUCACCGAGUGA [Fam2.1 aminoacylation ribozyme variant] | 39.1 | 6.81 | 4.13 | 6.58 | 6.98 | 3.33 |
| AAUACCCUGGUCAGCGAGUGA [Fam2.1 aminoacylation ribozyme variant] | 3.78 | 5.5 | 2.36 | 4.46 | 4.02 | 2.61 |
| AAUACCCUGGUCAUCAAGUGA [Fam2.1 aminoacylation ribozyme variant] | 2.42 | 1.75 | 1.15 | 1.56 | 1.48 | 1.16 |
| AAUACCCUGGUCAUCGAGAGA [Fam2.1 aminoacylation ribozyme variant] | 0.87 | 0.752 | 0.653 | 0.673 | 0.552 | 0.65 |
| AAUACCCUGGUCAUCGAGUAA [Fam2.1 aminoacylation ribozyme variant] | 3.36 | 1.32 | 1.41 | 1.93 | 1.51 | 1.54 |
